The supplement of paper PMC11865577

Legend:
Assay in all cases: pull-down binding Z-score (relative to library population); higher = stronger binding
[1] = tested on: TO-N3-2 (biotin conjugate); conditions: RNA library: Library-2
Outline: (§1)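 A heat-folded, dye-end-labelled (Cy5 or Cy3) RNA library (1 μg, phosphate/NaCl/KCl buffer) was exposed for 60 min at 25 °C to streptavidin beads holding 100 pmol of biotin-conjugated small molecule. RNA retained on the beads was eluted in hot SDS and hybridised to a DNA barcode microarray for 20 h at 55.5 °C. Binding scores were Z-scores against the library mean and standard deviation, calculated after subtracting beads alone and taking trimmed means of replicate probes.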

[2] = tested on: G-clamp-N3 (biotin conjugate); conditions: RNA library: Library-1 (pre-miRNA loops + repeats)
Outline: as §1

[3] = tested on: TO-3-N3 (biotin conjugate); conditions: RNA library: Library-2
Outline: as §1

TO-N3 (biotin conjugate) = conditions: RNA library: Library-2
Outline: as §1

[4] = tested on: TO-3-N3-2 (biotin conjugate); conditions: RNA library: Library-2
Outline: as §1

| Sequence | pull-down binding Z-score [1] | pull-down binding Z-score [2] | pull-down binding Z-score [3] | pull-down binding Z-score (TO-N3 (biotin conjugate)) | pull-down binding Z-score [4] |
| --- | --- | --- | --- | --- | --- |
| AAGGCCCUUGGGCACCCCAGGCCUU [hsa-mir-5700] | 0.656 | -1.26 | 0.259 | 0.181 | -0.081 |
| AAGGCGGGUGGUGCUCAGAUCGCCU [hsa-mir-326] | 0.779 | 0.799 | -0.0387 | 0.274 | 0.00254 |
| AAGGGUGUAUGAGAGAUCAACCCUU [hsa-mir-5697] | 1.19 | 2.33 | 0.544 | 1.07 | -0.0393 |
| AAGGUGGAGUUCUGGGUGCUGUUUUCCCACUCU [hsa-mir-378i] | 0.429 | -0.335 | 0.0547 | 0.173 | 0.299 |
| AAGUAAUUGUUUCUAAUGUACU [hsa-mir-412] | 0.583 | 0.96 | -0.549 | 0.00941 | 0.0532 |
| AAGUAGUUGGCGUCUUCAGAGACACUU [hsa-mir-643] | 0.0279 | -0.0629 | 0.57 | 0.531 | 0.0519 |
| AAGUCCGGCUCCAGAACCUGGACACCGCUCAG [hsa-mir-4638] | 1.09 | -1.24 | 0.52 | 0.898 | 0.379 |
| AAGUCGAUUUCCAAAAGUGACUU [hsa-mir-3124] | -1.11 | -0.161 | -0.856 | -1.11 | -0.588 |
| AAGUGCCGUCCUCAUGAGCCCCU [hsa-mir-6769b] | 0.802 | -0.873 | 0.296 | 0.59 | 0.181 |
| AAGUGGAGCAGGAAUGCGCUUUUCUCCACUG [hsa-mir-5187] | 0.231 | 1.93 | 0.299 | 0.567 | 0.27 |
| AAGUUCCCUCUGGCUGGAAC [hsa-mir-1249] | 0.112 | -0.433 | 0.574 | 0.559 | -0.021 |
| AAUAAAGUAUGUCCACAGCUGAAAGGACAUACUUUAUU [hsa-mir-4464] | -1.28 | -0.77 | -0.7 | -1.18 | -0.236 |
| AAUCCCAGCACUUUGGGAG [hsa-mir-3929] | 0.171 | 0.566 | 0.0452 | 0.0138 | -0.0338 |
| AAUCCCUCUCUUUCUAGUUCUUCCUAGAGUGAGGAAAA [hsa-mir-320b-1] | -0.55 | -1.69 | -0.294 | -0.325 | -0.166 |
| AAUGACUCAUAGUCAA [hsa-mir-4475] | -0.666 | -0.88 | 0.512 | 0.374 | -0.157 |
| AAUGCAGUCUGCACCCUGCUGCAUU [hsa-mir-6504] | 0.0157 | -0.398 | 0.237 | 0.0527 | -0.145 |
| AAUGCAUAGAAAGCAUU [hsa-mir-4272] | -0.629 | 1.58 | -0.177 | -0.421 | 0.00602 |
| AAUGCUGUGUUUCUGUAUGGUAUU [hsa-mir-92a-1] | -0.268 | -0.453 | 0.212 | 0.143 | -0.22 |
| AAUGUCAGGGCCACCCCUGACCUU [hsa-mir-6837] | -0.497 | 0.482 | -0.431 | -0.481 | -0.382 |
| AAUUGGCUUUUACAAAAGACCAACU [hsa-mir-4798] | -0.6 | 0.914 | 0.117 | 0.0359 | -0.259 |

| Sequence | pull-down binding Z-score [1] | pull-down binding Z-score [2] | pull-down binding Z-score [3] | pull-down binding Z-score (TO-N3 (biotin conjugate)) | pull-down binding Z-score [4] |
| --- | --- | --- | --- | --- | --- |
| AAUUUUCUCUUGUCUAAAAGAAAAGAACG [hsa-mir-521-2] | -0.765 | -0.762 | -0.905 | -0.996 | -0.0994 |
| AAUUUUGAUGAGUAUCAUAGGAGAAAAAUU [hsa-mir-363] | 0.542 | 1.49 | -0.302 | -0.184 | 0.27 |
| AAUUUUUUUUUAAUUUAAAAAAUU [hsa-mir-3938] | -1.36 | 0.843 | -0.808 | -1.13 | 0.127 |
| ACAAUAUGCUAUUAUAAUCGUAUGGCAUUGU [hsa-mir-2355] | -0.994 | 0.228 | -0.919 | -1.18 | -0.546 |
| ACAAUUAUGAAAGAAAAGAAAUUGU [hsa-mir-3611] | -0.566 | 0.163 | -0.386 | -0.636 | 0.327 |
| ACACACACCAGACUAUGGAAGCCAGUGU [hsa-mir-147a] | 0.0135 | -0.656 | -0.455 | -0.528 | -0.471 |
| ACACCUGUAAAGAAUUGGUCAGCCUGGGGACUGGUGAUCUCUGCAGCUGU [hsa-mir-4265] | 1.42 | -0.15 | 1.15 | 1.39 | 0.475 |
| ACACUGCGCUGCCCCAGACCCACUGU [hsa-mir-210] | 0.683 | -1.18 | 0.364 | 0.83 | 0.103 |
| CACGUGCUGCUUGUAUAGACAUGAG [hsa-mir-3659] | 0.528 | 0.468 | 0.88 | 1.11 |  |
| CGCCCGACUUCGGGG [hsa-mir-4767] | 0.0319 | 0.767 | -0.34 | -0.314 |  |
| GACAUUGCCAGAGGAUGGGCAGCAGAC [hsa-mir-6855] | 1.17 | 2 |  | 0.788 | 0.334 |
| GGACCAGCCCAAAGGCCAGGCCUGACCC [hsa-mir-4780] | 1.62 | -0.253 | 0.125 |  | 0.11 |
| GUGGAAGUGCCCACUGGUUCCA [hsa-mir-194-2] | 1.32 | -0.472 | 0.425 |  | 0.341 |
| UCAUUUUCCUUAAAAAAUGA [hsa-mir-3128] |  | -1.07 | -0.529 | -1.09 | -0.469 |
| UGUGGACAAGGGCCUUGUCUUAGACAGUCACU [hsa-mir-4318] |  | -0.432 | 0.603 | 0.983 | 0.359 |
| UGUUCACGUGGAGAGGAGUUAAACA [hsa-mir-499b] |  | 0.339 | 0.0485 | 0.423 | 0.375 |
| UUCAGUUUCCUUACUGGUAA [hsa-mir-302e] | -0.299 | -0.769 | -0.394 |  | -0.353 |
| UUUAUGUGAACUAAAAUAUAAA [hsa-mir-513c] | -1 | -1.49 | -0.547 |  | -0.21 |
| UUUGAAGUGUUCUAAAUGGUUCAAA [hsa-mir-424] | -1.05 | 1.09 | -0.532 | -0.738 |  |
